# Assay results: the RNAGym collection of RNA variant scans (doi:10.1021/acssynbio.7b00057)
# B1: Pistol ribozyme (parent)
# chain: GGGUCGUUGUUCCAUAAUCGCGUGGAUAUGGCACGCAAGUUUCUACCGGGCACCGUAAAUGUCCGACUGGAGCCGUUCGGGCGGCUAUAAACAGACCUCAGGCCCGAAGCGUGGCGGCACCUGCCGCCGGUGGUAAAAAAGAUCGGAAGAGCACACGUCU
# Variants of: B1
# Assay: aptazyme ON/OFF ratio, guanine; higher = stronger switching; co-transcriptional cleavage with and without guanine
row,Variant,aptazyme ON/OFF ratio
1,U7G U8G G9C U10A U11C C12U,1.08
2,U7G U8G G9C U10A U11C C12G,1.11
3,U7G U8G G9A U11A C12U C13A,1.15
4,U7G U8G G9A U11A C12U C13G,1.12
5,U7G U8G G9A U11A C12U C13U,1.22
6,U7G U8G G9A U10C U11A C12A,1.34
7,U7G U8G G9A U10C U11A C12G,1.21
8,U7G U8G G9A U10C U11A C12U,1.18
9,U7G U8G G9C C12U C13U,1.12
10,U7G U8G G9C C12U C13A,1.11
11,U7G U8G G9C C12U C13G,1.22
12,U7G U8G G9A U10G U11C C12A,1.4
13,U7G U8G G9A U10G U11C C12G,1.26
14,U7G U8G G9A U10G U11C C12U,1.27
15,U7G U8G G9C U10A U11C C12A C13U,1.04
16,U7G U8G G9C U10A U11C C12A C13A,1.07
17,U7G U8G G9C U10A U11C C12A C13G,1.06
18,U7G U8G G9C U10A U11G C12U C13A,1.07
19,U7G U8G G9C U10A U11G C12U C13U,1.05
20,U7G U8G G9C U10A U11G C12U C13G,1.04
21,U7G U8G G9C U10C C12U C13A,1.29

row,Variant,aptazyme ON/OFF ratio
1,U7G U8G G9C U10C C12U C13U,1.08
2,U7G U8G G9C U10C C12U C13G,1.36
3,U7G U8G G9A U11A C12A C13G,1.14
4,U7G U8G G9A U11A C12A C13A,1.23
5,U7G U8G G9A U11A C12A C13U,1.38
6,U7G U8G G9A U11G C12U C13A,1.23
7,U7G U8G G9A U11G C12U C13U,1.4
8,U7G U8G G9A U11G C12U C13G,1.25
9,U7G U8G G9A U10C U11A C12A C13A,1.2
10,U7G U8G G9A U10C U11A C12A C13U,1.25
11,U7G U8G G9A U10C U11A C12A C13G,1.15
12,U7G U8G G9C U10A U11A C12U C13A,1.08
13,U7G U8G G9C U10A U11A C12U C13G,1.03
14,U7G U8G G9C U10A U11A C12U C13U,1.02
15,U7G U8G G9C U10A U11G C13A,1.08
16,U7G U8G G9C U10A U11G C13G,1.03
17,U7G U8G G9C U10A U11G C13U,1.04
18,U7G U8G G9A U10G U11C C12A C13A,1.17
19,U7G U8G G9A U10G U11C C12A C13U,1.27
20,U7G U8G G9A U10G U11C C12A C13G,1.15
21,U7G U8G G9A U10G U11G C12U,1.43

row,Variant,aptazyme ON/OFF ratio
1,U7G U8G G9A U10G U11G C12A,1.21
2,U7G U8G G9A U10G U11G C12G,1.3
3,U7G U8G G9C U10A U11C C12U C13G,1.19
4,U7G U8G G9C U10A U11C C12U C13U,1.04
5,U7G U8G G9C U10A U11C C12U C13A,1.06
6,U7G U8G G9C U10A C12G C13U,1.04
7,U7G U8G G9C U10A C12G C13G,1.04
8,U7G U8G G9C U10A C12G C13A,1.05
9,U7G U8G G9A U10G U11A C12A C13G,1.04
10,U7G U8G G9A U10G U11A C12A C13U,1.18
11,U7G U8G G9A U10G U11A C12A C13A,1.12
12,U7G U8G G9C U10A U11A,1.67
13,U7G U8G G9C U10A U11G,1.11
14,U7G U8G G9C U10A U11C,1.04
15,U7G U8G G9C U10A U11A C13U,1.07
16,U7G U8G G9C U10A U11A C13G,1.02
17,U7G U8G G9C U10A U11A C13A,1.06
18,U7G U8G G9A U10A U11C C12A C13U,1.09
19,U7G U8G G9A U10A U11C C12A C13G,1.17
20,U7G U8G G9A U10A U11C C12A C13A,1.06
21,U7G U8G G9C U10C U11A C13G,1.17

row,Variant,aptazyme ON/OFF ratio
1,U7G U8G G9C U10C U11A C13A,1.21
2,U7G U8G G9C U10C U11A C13U,1.41
3,U7G U8G G9A U10G U11G C12G C13U,1.11
4,U7G U8G G9A U10G U11G C12G C13G,1.25
5,U7G U8G G9A U10G U11G C12G C13A,1.23
6,U7G U8G G9A U11A C12G C13A,1.03
7,U7G U8G G9A U11A C12G C13G,1.06
8,U7G U8G G9A U11A C12G C13U,1.15
9,U7G U8G G9C,4.59
10,U7G U8G G9C U10A U11A C12A C13A,1.05
11,U7G U8G G9C U10A U11A C12A C13U,1.04
12,U7G U8G G9C U10A U11A C12A C13G,1.04
13,U7G U8G G9A U11G C12G,1.39
14,U7G U8G G9A U11G C12U,1.5
15,U7G U8G G9A U11G C12A,1.28
16,U7G U8G G9A U10G U11G C13G,1.41
17,U7G U8G G9A U10G U11G C13U,1.22
18,U7G U8G G9A U10G U11G C13A,1.13
19,U7G U8G G9A U10G U11G C12U C13G,1.27
20,U7G U8G G9A U10G U11G C12U C13A,1.71
21,U7G U8G G9A U10G U11G C12U C13U,1.11
